Assay results published in patent US20210163545A1.

Tests used:
[1] = target: Fab; assay: static binding capacity: Fab incubated with ligand-immobilized porous particles, eluted at pH 2.5, absorbance
[2] = target: Fab; assay: static binding capacity for Fab after 0.1 M NaOH for 24 h, relative to SBC of the same particles without alkali treatment

SBC without alkali treatment (mg/mL-particles) [1] | SBC retention ratio (%) after alkali treatment [2] [%] | Binder
60 | 42 | Recombinant immunoglobulin κ chain binding protein KBP9 (protein, part only; not given: further domain copies and linkers, part only) chain, part: KETETEEPKEEVTIKVNLIFADGKTQTATFKGTFEEATAEAYRYADLLAKVNGEYTADLEDGGYTINIKFAGK
64 | 73 | Recombinant immunoglobulin κ chain binding protein KBP7 (protein, part only; not given: further domain copies and linkers, part only) chain, part: KETPETPEEPKEEVTIKVNLIFADGKTQTATFKGTFEEATAEAYRYADLLAKVNYGEYTADLEDGGYTINIKFAGK
63 | 51 | Recombinant immunoglobulin κ chain binding protein KBP5 (protein) KETPETPEEPKEEVTIKVNLIFADGKTQTATFKGTFEEATAEAYRYADLLAKVQGEYTADLEDGGYTINIKFAGKKETPETPEEPKEEVTIKVNLIFADGKTQTATFKGTFEEATAEAYRYADLLAKVQGEYTADLEDGGYTINIKFAGKKETPETPEEPKEEVTIKVNLIFADGKTQTATFKGTFEEATAEAYRYADLLAKVQGEYTADLEDGGYTINIKFAGKKETPETPEEPKEEVTIKVNLIFADGKTQTATFKGTFEEATAEAYRYADLLAKVQGEYTADLEDGGYTINIKFAGK
59 | 46 | Recombinant immunoglobulin κ chain binding protein KBP2 (protein) KETPETPEEPKEEVTIKVNLIFADGRTQTATFKGTFEEATAEAYRYADLLAKVNGEYTADLEDGGYTINIKFAGKKETPETPEEPKEEVTIKVNLIFADGRTQTATFKGTFEEATAEAYRYADLLAKVNGEYTADLEDGGYTINIKFAGKKETPETPEEPKEEVTIKVNLIFADGRTQTATFKGTFEEATAEAYRYADLLAKVNGEYTADLEDGGYTINIKFAGKKETPETPEEPKEEVTIKVNLIFADGRTQTATFKGTFEEATAEAYRYADLLAKVNGEYTADLEDGGYTINIKFAGK
58 | 48 | Recombinant immunoglobulin κ chain binding protein KBP3 (protein) KETPETPEEPKEEVTIKVNLIFADGKTQTATFKGRFEEATAEAYRYADLLAKVNGEYTADLEDGGYTINIKFAGKKETPETPEEPKEEVTIKVNLIFADGKTQTATFKGRFEEATAEAYRYADLLAKVNGEYTADLEDGGYTINIKFAGKKETPETPEEPKEEVTIKVNLIFADGKTQTATFKGRFEEATAEAYRYADLLAKVNGEYTADLEDGGYTINIKFAGKKETPETPEEPKEEVTIKVNLIFADGKTQTATFKGRFEEATAEAYRYADLLAKVNGEYTADLEDGGYTINIKFAGK

More lines, now with the values behind:

Binder | SBC without alkali treatment (mg/mL-particles) [1] | SBC retention ratio (%) after alkali treatment [2] [%]
Recombinant immunoglobulin κ chain binding protein KBP6 (protein, part only; not given: further domain copies and linkers, part only) chain, part: KETPETPEEPKEEVTIKVNLIFADGKTQTATFKGTFEEATAEAYRYADLLAKVNAGEYTADLEDGGYTINIKFAGK | 61 | 58
Recombinant immunoglobulin κ chain binding protein KBP8 (protein, part only; not given: further domain copies and linkers, part only) chain, part: KETETPEEPKEEVTIKVNLIFADGKTQTATFKGTFEEATAEAYRYADLLAKVNGEYTADLEDGGYTINIKFAGK | 60 | 45
Recombinant type immunoglobulin κ chain binding protein KBP0 (protein) KETPETPEEPKEEVTIKVNLIFADGKTQTATFKGTFEEATAEAYRYADLLAKVNGEYTADLEDGGYTINIKFAGKKETPETPEEPKEEVTIKVNLIFADGKTQTATFKGTFEEATAEAYRYADLLAKVNGEYTADLEDGGYTINIKFAGKKETPETPEEPKEEVTIKVNLIFADGKTQTATFKGTFEEATAEAYRYADLLAKVNGEYTADLEDGGYTINIKFAGKKETPETPEEPKEEVTIKVNLIFADGKTQTATFKGTFEEATAEAYRYADLLAKVNGEYTADLEDGGYTINIKFAGK | 60 | 39
Recombinant immunoglobulin κ chain binding protein KBP1 (protein) KETPETPEEPKEEVTIRVNLIFADGKTQTATFKGTFEEATAEAYRYADLLAKVNGEYTADLEDGGYTINIKFAGKKETPETPEEPKEEVTIRVNLIFADGKTQTATFKGTFEEATAEAYRYADLLAKVNGEYTADLEDGGYTINIKFAGKKETPETPEEPKEEVTIRVNLIFADGKTQTATFKGTFEEATAEAYRYADLLAKVNGEYTADLEDGGYTINIKFAGKKETPETPEEPKEEVTIRVNLIFADGKTQTATFKGTFEEATAEAYRYADLLAKVNGEYTADLEDGGYTINIKFAGK | 56 | 46
Recombinant immunoglobulin κ chain binding protein KBP4 (protein) KETPETPEEPKEEVTIKVNLIFADGKTQTATFKGTFEEATAEAFRYADLLAKVNGEYTADLEDGGYTINIKFAGKKETPETPEEPKEEVTIKVNLIFADGKTQTATFKGTFEEATAEAFRYADLLAKVNGEYTADLEDGGYTINIKFAGKKETPETPEEPKEEVTIKVNLIFADGKTQTATFKGTFEEATAEAFRYADLLAKVNGEYTADLEDGGYTINIKFAGKKETPETPEEPKEEVTIKVNLIFADGKTQTATFKGTFEEATAEAFRYADLLAKVNGEYTADLEDGGYTINIKFAGK | 47 | 49
